Test results from doi:10.1101/2025.09.07.674715.

Target: GAPS4a of GAPS4^MAVP-R (Vibrio parahaemolyticus MAVP-R) (Vibrio parahaemolyticus MAVP-R)
Test: SEC-MALS

## GAPS4b of GAPS4^MAVP-R (Vibrio parahaemolyticus MAVP-R) (natural protein)
  stoichiometry N (GAPS4b per GAPS4a (2:2)): 1
